In experiment [1] the target is Scribble PDZ1 (Homo sapiens) (UniProt Q14160). The experiment can be described thus: holdup assay. Particulars: cited from earlier work.
In experiment [2] the target is biotinylated RSK1 725-735 peptide, unphosphorylated (human) (UniProt Q15418). Kind of experiment: holdup assay.
Experiment [3] addresses biotinylated RSK1 725-735 peptide, phosphorylated at Ser732 (position -3) (human) (UniProt Q15418). The experiment can be described thus: holdup assay.
For experiment [4], the target named is biotinylated RSK1 725-735 peptide, unphosphorylated (human) (UniProt Q15418). Kind of experiment: SPR.
Experiment [5] addresses biotinylated RSK1 725-735 peptide, phosphorylated at Ser732 (position -3) (human) (UniProt Q15418). The experiment can be described thus: SPR.
Experiment [6] addresses MBP-fused PDZ domain of ARHGEF12 (human) (UniProt Q9NZN5). The experiment can be described thus: fluorescence polarisation.
Experiment [7] deals with MBP-fused PDZ domain of SYNJ2BP (human) (UniProt P57105). The experiment can be described thus: fluorescence polarisation.
Sequence of MBP-fused PDZ domain of SYNJ2BP (human) (P57105 13-100): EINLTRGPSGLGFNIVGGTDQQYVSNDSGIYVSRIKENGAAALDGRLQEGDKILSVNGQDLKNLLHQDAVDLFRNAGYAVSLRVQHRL
The target of experiment [8] is MBP-fused PDZ domain of GOPC (human) (UniProt Q9HD26). The experiment can be described thus: fluorescence polarisation.
Experiment [9] addresses MBP-fused PDZ domain 1 of PDZRN3 (human) (UniProt Q9UPQ7). The experiment can be described thus: fluorescence polarisation.

Sequence of Scribble PDZ1 (Homo sapiens) (Q14160 725-818): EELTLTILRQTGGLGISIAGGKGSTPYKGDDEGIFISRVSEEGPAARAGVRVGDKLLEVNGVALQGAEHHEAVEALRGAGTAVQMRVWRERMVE
Sequence of MBP-fused PDZ domain of ARHGEF12 (human) (Q9NZN5 72-151): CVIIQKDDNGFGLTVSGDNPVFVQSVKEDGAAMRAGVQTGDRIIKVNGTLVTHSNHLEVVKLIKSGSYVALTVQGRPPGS
Sequence of MBP-fused PDZ domain 1 of PDZRN3 (human) (Q9UPQ7 249-339): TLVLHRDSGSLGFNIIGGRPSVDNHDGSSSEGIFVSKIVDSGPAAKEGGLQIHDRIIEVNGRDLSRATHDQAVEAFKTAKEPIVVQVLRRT
Sequence of HPV16 E6 PBM (P03126 whole entry, looked up): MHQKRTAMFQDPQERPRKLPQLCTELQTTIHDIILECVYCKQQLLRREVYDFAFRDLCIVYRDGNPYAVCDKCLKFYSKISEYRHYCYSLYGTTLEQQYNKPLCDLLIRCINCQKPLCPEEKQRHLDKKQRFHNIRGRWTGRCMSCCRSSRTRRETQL

In the case of HPV16 E6 PBM (from UniProt P03126), the Kd in experiment [1] is 7.5 µM.

For “MBP-fused PDZ domain 1 of NHERF3 (from UniProt Q5T2W1 9-90) (domain or fragment)”, in experiment [2], the BI came to 0.41 and the Kd came out at 22.1 µM. In experiment [3], the Kd was greater than 100 µM.

Consider “MBP-fused PDZ domain 1 of PDZRN3 (from UniProt Q9UPQ7 249-339) (domain or fragment)”, for which the BI in experiment [2] was 0.26; in [3], 0.45. Moreover, the Kd in [2] was 45.4 µM; in experiment [3], 18.6 µM.

Turning to “MBP-fused PDZ domain 2 of GRID2IP (from UniProt A4D2P6 279-356) (domain or fragment)”, the Kd is 3.96 µM in experiment [4], 7.1 µM in experiment [2] and greater than 100 µM in experiment [3]. Moreover, the BI in experiment [2] was found to be 0.67.

For the substance “MBP-fused PDZ domain 2 of MAGI2 (from UniProt Q86UL8 426-510) (domain or fragment)”, the BI in [2] was 0.42; in [3], 0.23. In addition, the Kd came to 21.2 µM in [2] and 53.8 µM in experiment [3].

For the substance “MBP-fused PDZ domain 3 of PDZD7 (from UniProt Q9H5P4 862-934) (domain or fragment)”, the results for the Kd in experiment [4] and in [3] were 6.2 µM and 92.9 µM, respectively. In experiment [3], this substance had a BI of 0.15.

“MBP-fused PDZ domain of ARHGEF12 (from UniProt Q9NZN5 72-151) (domain or fragment)”: the Kd in experiment [4] is 2.79 µM; in [2], 4.2 µM; in experiment [3], greater than 100 µM. The substance also displayed a BI in experiment [2] of 0.77.

Turning to “MBP-fused PDZ domain of HTRA1 (from UniProt Q92743 365-467) (domain or fragment)”, in experiment [2], the BI was determined as 0.44 and the Kd stood at 19.4 µM. In [3], the BI was found to be 0.36 and the Kd was determined as 27.7 µM.

As to “MBP-fused PDZ domain of MAST1 (from UniProt Q9Y2H9 967-1055) (domain or fragment)”, in [2], the BI was 0.57 and the Kd amounted to 11.1 µM. For the same substance, in experiment [3], the Kd is greater than 100 µM.

As for “MBP-fused PDZ domain of MAST2 (from UniProt Q6P0Q8 1104-1192) (domain or fragment)”, the results for the Kd in experiment [4] and in [3] were 7.02 µM and 53.8 µM, respectively. Moreover, the BI in experiment [2] was determined as 0.74; in [3], 0.23.

With “MBP-fused PDZ domain of SNTA1 (from UniProt Q13424 87-170) (domain or fragment)”, the figures for the BI in [2] and in experiment [3] were 0.31 and 0.53, respectively. For the same substance, the Kd in experiment [2] turned out to be 35.1 µM; in experiment [3], 13.2 µM.

As to “MBP-fused PDZ domain of SNTB1 (from UniProt Q13884 112-195) (domain or fragment)”, the Kd in [5] was determined as 48 µM; in [2] it was 57.2 µM; in experiment [3], 18.6 µM. Besides, the BI in experiment [2] came to 0.22; in experiment [3], 0.45.

Consider “MBP-fused PDZ domain of SNTG2 (from UniProt Q9NY99 73-156) (domain or fragment)”, for which the Kd came to 37 µM in experiment [5], 22.1 µM in [2] and 13.8 µM in [3]. Further, the BI in experiment [2] came to 0.41; in [3], 0.52.

In the case of “MBP-fused PDZ domain of SYNJ2BP (from UniProt P57105 13-100) (domain or fragment)”, the results for the Kd in [5], in experiment [2] and in [3] were 25 µM, 45.4 µM and 12.6 µM, respectively. The BI in experiment [2] is 0.26; in [3], 0.54.

Regarding “MBP-fused second PDZ domain of MAGI1 (from UniProt Q96QZ7 472-554) (domain or fragment)”, in [2], the BI is 0.43 and the dissociation constant (Kd) came out at 20.3 µM. In [3], this substance gave a BI of 0.15 and a Kd of 92.9 µM.

Turning to “PDZ domain 1 of GRID2IP (from UniProt A4D2P6 3-84) (domain or fragment)”, the Kd in [2] is greater than 100 µM; in [3], 50.8 µM. Moreover, in experiment [3], the BI is 0.24.

Regarding “PDZ domain 2 of DLG4 (from UniProt P78352 160-246) (domain or fragment)”, the figures for the BI in experiment [2] and in experiment [3] were 0.11 and 0.25, respectively. The substance further came in with a Kd in [2] greater than 100 µM.

With “PDZ domain 2 of NHERF2 (from UniProt Q15599 150-230) (domain or fragment)”, the dissociation constant Kd in [2] is 64.8 µM; in [3], greater than 100 µM.

Consider “PDZ domain 3 of DFNB31 (from UniProt Q9P202 816-899) (domain or fragment)”, for which, in experiment [2], the BI is 0.23 and the Kd came to 53.8 µM. In experiment [3], the dissociation constant (Kd) was greater than 100 µM.

In experiment [2], “PDZ domain 3 of LNX1 (from UniProt Q8TBB1 507-593) (domain or fragment)” had a Kd greater than 100 µM. For the same substance, in [3], the BI was determined as 0.24 and the Kd was determined as 50.8 µM.

In [2], “PDZ domain of ARHGEF11 (from UniProt O15085 47-126) (domain or fragment)” yielded a BI of 0.28 and an equilibrium dissociation constant (Kd) of 40.8 µM. Further, the Kd in [3] was greater than 100 µM.

Substance “PDZ domain of GORASP1 (domain or fragment)” had a Kd in [2] greater than 100 µM.

Consider “PDZ domain of GRASP (from UniProt Q7Z6J2 101-190) (domain or fragment)”, for which the BI in experiment [2] is 0.29. The dissociation constant (Kd) in [2] is 38.8 µM; in experiment [3] it was greater than 100 µM.

In turn, “PDZ domain of LAP2 (from UniProt Q96RT1 1321-1410) (domain or fragment)” gave a Kd in experiment [2] greater than 100 µM. In [3], this substance gave a BI of 0.28 and a Kd of 40.8 µM.

Take “PDZ domain of LIMK2 (from UniProt P53671 152-239) (domain or fragment)”: the Kd in experiment [2] is greater than 100 µM; in [3], 57.2 µM. The substance further returned a BI in experiment [3] of 0.22.

In turn, “PDZ domain of PPP1R9A (from UniProt Q9ULJ8 504-592) (domain or fragment)” had a Kd in experiment [2] greater than 100 µM. In experiment [3], the BI was determined as 0.33 and the Kd came out at 31.8 µM.

Regarding “PDZ domain of PTPN3 (from UniProt P26045 510-582) (domain or fragment)”, the Kd is greater than 100 µM in experiment [2] and 60.8 µM in experiment [3]. For the same substance, the BI in experiment [3] was found to be 0.21.

In turn, “PDZ domain of SHANK3 (from UniProt Q9BYB0 646-740) (domain or fragment)” came in with a BI in experiment [2] of 0.27. Moreover, the Kd in experiment [3] was greater than 100 µM.

With “PDZ domain of SHROOM2 (from UniProt Q13796 26-108) (domain or fragment)”, the figures for the Kd in experiment [2] and in [3] were greater than 100 µM and 60.8 µM, respectively. This substance also had a BI in experiment [3] of 0.21.

As to “RSK1 683-735 peptide, unphosphorylated (from UniProt Q15418 683-735)”, the dissociation constant Kd is 6.6 µM in experiment [6], greater than 100 µM in experiment [7], 27 µM in experiment [8] and greater than 100 µM in [9].

These data come from PMC6424611.
